Measured values published in patent US11702475B2, “Cysteine engineered fibronectin type III domain binding molecules” (Janssen Biotech, Inc., priority 2013, dated 2023).

B1: L7C (conjugate)
chain: LPAPKNCVVSEVTEDSARLSWDDPWAFYESFLIQYQESEKVGEAIVLTVPGSERSYDLTGLKPGTEYTVSIYGVHNVYKDTNMRGLPLSAIFTT
modifications: left off: small tags and cut ends
B2: V46C (conjugate)
chain: LPAPKNLVVSEVTEDSARLSWDDPWAFYESFLIQYQESEKVGEAICLTVPGSERSYDLTGLKPGTEYTVSIYGVHNVYKDTNMRGLPLSAIFTT
modifications: left off: small tags and cut ends
B3: D23C (conjugate)
chain: LPAPKNLVVSEVTEDSARLSWDCPWAFYESFLIQYQESEKVGEAIVLTVPGSERSYDLTGLKPGTEYTVSIYGVHNVYKDTNMRGLPLSAIFTT
modifications: left off: small tags and cut ends
B4: E43C (conjugate)
chain: LPAPKNLVVSEVTEDSARLSWDDPWAFYESFLIQYQESEKVGCAIVLTVPGSERSYDLTGLKPGTEYTVSIYGVHNVYKDTNMRGLPLSAIFTT
modifications: left off: small tags and cut ends
B5: D22C (conjugate)
chain: LPAPKNLVVSEVTEDSARLSWCDPWAFYESFLIQYQESEKVGEAIVLTVPGSERSYDLTGLKPGTEYTVSIYGVHNVYKDTNMRGLPLSAIFTT
modifications: left off: small tags and cut ends
B6: Y28C (conjugate)
chain: LPAPKNLVVSEVTEDSARLSWDDPWAFCESFLIQYQESEKVGEAIVLTVPGSERSYDLTGLKPGTEYTVSIYGVHNVYKDTNMRGLPLSAIFTT
modifications: left off: small tags and cut ends
B7: F27C (conjugate)
chain: LPAPKNLVVSEVTEDSARLSWDDPWACYESFLIQYQESEKVGEAIVLTVPGSERSYDLTGLKPGTEYTVSIYGVHNVYKDTNMRGLPLSAIFTT
modifications: left off: small tags and cut ends
B8: W25C (conjugate)
chain: LPAPKNLVVSEVTEDSARLSWDDPCAFYESFLIQYQESEKVGEAIVLTVPGSERSYDLTGLKPGTEYTVSIYGVHNVYKDTNMRGLPLSAIFTT
modifications: left off: small tags and cut ends
B9: A26C (conjugate)
chain: LPAPKNLVVSEVTEDSARLSWDDPWCFYESFLIQYQESEKVGEAIVLTVPGSERSYDLTGLKPGTEYTVSIYGVHNVYKDTNMRGLPLSAIFTT
modifications: left off: small tags and cut ends
B10: P24C (conjugate)
chain: LPAPKNLVVSEVTEDSARLSWDDCWAFYESFLIQYQESEKVGEAIVLTVPGSERSYDLTGLKPGTEYTVSIYGVHNVYKDTNMRGLPLSAIFTT
modifications: left off: small tags and cut ends
B11: F31C (conjugate)
chain: LPAPKNLVVSEVTEDSARLSWDDPWAFYESCLIQYQESEKVGEAIVLTVPGSERSYDLTGLKPGTEYTVSIYGVHNVYKDTNMRGLPLSAIFTT
modifications: left off: small tags and cut ends
B12: S52C (conjugate)
chain: LPAPKNLVVSEVTEDSARLSWDDPWAFYESFLIQYQESEKVGEAIVLTVPGCERSYDLTGLKPGTEYTVSIYGVHNVYKDTNMRGLPLSAIFTT
modifications: left off: small tags and cut ends

Experiment: Analytical size exclusion chromatography (percent monomer)
Type: physicochemical
Details: NEM-conjugated cysteine variants; SEC, Abs280 monomer region 5.5-6 minutes vs oligomer region 4-5.3 minutes
Procedure: Size exclusion chromatography was used to determine the aggregation state of the FN3 domains binding EGFR. Aliquots (10 μL) of each purified FN3 domain were injected onto a Superdex 75 5/150 column (GE Healthcare) at a flow rate of 0.3 mL/min in a mobile phase of PBS pH 7.4. Elution from the column was monitored by absorbance at 280 nm.
The percent monomer for each protein was determined by integrating the Abs280 signal and comparing the peak in the monomer region (5.5-6 minutes) to the peaks in the oligomer region (4-5.3 minutes).

Point of comparison: B1, Percent monomer 93%. Against it:
- B2 — higher, 100%
- B3 — higher, 100%
- B4 — higher, 100%
- B5 — lower, 85%
- B6 — lower, 92%
- B7 — higher, 97%
- B8 — lower, 76%
- B9 — higher, 95%
- B10 — lower, 88%
- B11 — lower, 57%
- B12 — higher, 100%
